Measurements from article PMC4440780, “Turning Escherichia coli into a Frataxin-Dependent Organism” (PLoS Genetics, 2015).

How the values were obtained:
[1] = target: T1, IscU_(I108M)-(his)6, E. coli IscU with the Ile108Met substitution (E. coli, UniProt P0ACD4 1-128, I108M); assay: co-elution on anion exchange chromatography (QFF); purified His-tagged proteins mixed anaerobically 1:1:1 (144 uM each) for 40 min with 4-fold excess Fe(SO4)2(NH4)2, 10-fold excess L-cysteine, 5 mM DTT in 50 mM Tris-HCl pH 8; loaded on a 1-mL QFF column, eluted with a gradient to 1 M NaCl; fractions analysed by SDS-PAGE; the single proteins elute at lower salt; details: both partners purified
T1 construct: IscU, Fe-S cluster scaffold protein of E. coli K-12 MG1655; coding region amplified from pIscUIM and cloned NdeI/HindIII into pET21a+; the methods say the proteins were mixed with Fe(SO4)2(NH4)2, L-cysteine and DTT; By gel filtration it exists mainly as a dimer; also called IscUIM; His-tagged IscUIM; not shown: His6, C-terminal, kept

[2] = target: T2, (his)6-IscS, E. coli cysteine desulfurase IscS (E. coli, UniProt P0A6B7 1-404); assay: as above; details: both partners purified
T2 construct: IscS, cysteine desulfurase of E. coli; not shown: His6, N-terminal, kept

B1: CyaY-(his)6, E. coli frataxin homolog CyaY (natural protein, UniProt P27838 1-106, looked up)
chain: MNDSEFHRLADQLWLTIEERLDDWDGDSDIDCEINGGVLTITFENGSKIIINRQEPLHQVWLATKQGGYHFDLKGDEWICDRSGETFWDLLEQAATQQAGETVSFR
notes: CyaY, frataxin homolog of E. coli; not shown: His6, C-terminal, kept
- binding result [1]: binds
- binding result [2]: binds
